Results as given in patent US10857214B2, “Compositions and methods for treating gluten intolerance and disorders arising therefrom” (Codexis, Inc., priority 2015, dated 2020).
Square brackets hold non-standard residues; d marks the D form. Peptide text beside a SMILES is read from it. * marks the point of attachment. Sta = CC(C)C[C@H](N)[C@@H](O)CC(=O)O; Isovaleryl = CC(C)CC(=O)*

B1: neprosin: 29 kDa prolyl endoprotease isolated from Nepenthes pitcher fluid (fraction 2), SEQ ID NO.: 1 (protein)
chain: MQAKFFTFVILSSVFYFNYPLAEARSIQARLANKPKGTIKTIKGDDGEVVDCVDIYKQPAFDHPLLKNHTLQMQPSSYASKVGEYNKLEQPWHKNGECPKGSIPIRRQVITGLPVVKKQFPNLKFAPPSANTNHQYAVIAYFYGNASLQGANATINIWEPNLKNPNGDFSLTQIWISAGSGSSLNTIEAGWQVYPGRTGDSQPRFFIYWTADGYTSTGCYDLTCPGFVQTNNYYAIGMALQPSVYGGQQYELNESIQRDPATGNWWLYLWGTVVGYWPASIYNSITNGADTVEWGGEIYDSSGTGGFHTTTQMGSGHFPTEGYGKASYVRDLQCVDTYGNVISPTANSFQGIAPAPNCYNYQFQQGSSELYLFYGGPGCQ
B2: recombinant nepenthesin I: recombinant aspartic protease of Nepenthes, SEQ ID NO.: 21 (protein)
chain: NGPSGVETSVYAGDGEYLMNLSIGTPAQPFSAIMDTGSDLIWTQCQPCTQCFNQSTPIFNPQGSSSFSTLPCSSQLCQALSSPTCSNNFCQYTYGYGDGSETQGSMGTETLTFGSVSIPNITFGCGENNQGFGQGNGAGLVGMGRGPLSLPSQLDVTKFSYCMTPIGSSTPSNLLLGSLANSVTAGSPNTTLIQSSQIPTFYYITLNGLSVGSTRLPIDPSAFALNSNNGTGGIIIDSGTTLTYFVNNAYQSVRQEFISQINLPVVNGSSSGFDLCFQTPSDPSNLQIPTFVMHFDGGDLELPSENYFISPSNGLICLAMGSSSQGMSIFGNIQQQNMLVVYDTGNSVVSFASAQCGAS
B3: recombinant nepenthesin II: recombinant aspartic protease of Nepenthes, SEQ ID NO.: 20 (protein)
chain: QSSSGIETPVYAGDGEYLMNVAIGTPDSSFSAIMDTGSDLIWTQCEPCTQCFSQPTPIFNPQDSSSFSTLPCESQYCQDLPSETCNNNECQYTYGYGDGSTTQGYMATETFTFETSSVPNIAFGCGEDNQGFGQGNGAGLIGMGWGPLSLPSQLGVGQFSYCMTSYGSSSPSTLALGSAASGVPEGSPSTTLIHSSLNPTYYYITLQGITVGGDNLGIPSSTFQLQDDGTGGMIIDSGTTLTYLPQDAYNAVAQAFTDQINLPTVDESSSGLSTCFQQPSDGSTVQVPEISMQFDGGVLNLGEQNILISPAEGVICLAMGSSSQLGISIFGNIQQQETQVLYDLQNLAVSFVPTQCGAS

What was measured:
[1] = tested on: Nepenthes enzymes; experiment: enzyme inhibition testing, BSA digestion by Nepenthes enzymes, SDS-PAGE; format: biochemical; settings: BSA 1 mg/ml, 0.12 μM Nepenthes enzymes, 15 min at 37° C.; inhibitors at 1 mM
Description: Inhibitors: PMSF (phenylmethylsulfonyl fluoride), P (pepstatin), L (leupeptin), E (EDTA and EGTA), DTT (dithiothreitol), ZPP (Z-Pro-Pro-aldehyde-dimethyl acetal). All inhibitor concentrations at 1 mM except where noted. Extract: fluid protein extract, M: lane markers. For enzyme inhibition testing, bovine serum albumin (1 mg/ml) was digested with 0.12 μM Nepenthes enzymes for 15 min at 37° C., quenched by brief boiling and then analyzed by 10% SDS-PAGE. The enzymes were pretreated with controls and inhibitors at 4° C. for 2 days prior to digestion experiments. PMSF, pepstatin, leupeptin, EDTA, EGTA, DTT from Sigma-Aldrich, and ZPP (Z-Pro-Pro-aldehyde-dimethyl acetal) from Bachem.

[2] = tested on: crude gliadin; experiment: SDS-PAGE and proteomic LC-MS/MS analysis of crude gliadin digests; format: biochemical, Triticum aestivum; settings: crude gliadin slurry digested with purified neprosin alone
Description: Digestions at pH 2.5 and 37° C., for 90 min. All concentrations in μM. M: Molecular weight markers, and gliadin: total crude gliadin in the absence of protease. […] Peptide data from LC-MS/MS runs, with intensities obtained using Protein Deconvolution 1.0. […] A stock gliadin slurry of 20-50 mg/ml was prepared in acidic solution (100 mM glycine HCl, pH 2.5) and briefly sonicated to further break up large particulates and promote suspension. Digestions of 10 mg/mL gliadin slurries were initiated by addition of enzyme (pepsin, fluid enzymes or both) and held at 37° C. with gentle rotation. Digest progress was monitored by gravimetric analysis, optical transmission, SDS-PAGE and mass spectrometry. For gravimetric analysis, digests were quenched by boiling and treated with TCA/chloroform, followed by centrifugation to recover undigested or poorly digested protein. For monitoring with optical transmission, digestion reactions were conducted in 96-well plate with ≥3 replicates of each reaction condition, and turbidity monitored at 595 nm at 37° C. every 2 minutes, for 90 minutes (SpectraMax plate reader, Molecular Devices). The plate was shaken at medium speed briefly between measurements. The digests were quenched after 90 min reaction by boiling for 10 minutes (confirmed to have no impact on digestion profile, a posteriori). An aliquot of the reaction mixture was analyzed on an 8% SDS-PAGE gel. The remaining amount was centrifuged and the supernatant was analyzed by mass spectrometry. Supernatant was analyzed by data-dependent LC-MS/MS, in two 1-hour reversed phase gradient runs, configured for top-10 ion selection using CID in a high/low configuration. In one run, ion selection was restricted to 2+ and higher charge states. In the other run, ion selection was applied to 1+ charge states only. Data from both runs were combined and searched against all UniprotKB/Swiss-Prot entries for gliadin and glutenin from Triticum aestivum (25 proteins), using Mascot v2.3, configured for non-specific digestions and filtered for peptide hits with p<0.05. For estimation of peptide size distribution, all LC-MS spectra were combined and deconvoluted in Protein Deconvolution v1.0, with appropriate settings. For label-free quantitative analysis using the subset of the digest identified in the database search, the hit list was combined with the raw data in Mass Spec Studio and used to generate a set of peptide ion chromatograms, integrated over all isotopes to determine a weight-average intensity for each peptide sequence identified.

[3] = tested on: protein standards; experiment: cleavage preferences on protein standards, LC-MS/MS; format: biochemical
Description: C-terminal cleavage preferences (P1 position) as a function of storage time at elevated temperature. Fluid concentrate was incubated at 37° C. for 0-7 days. […] Data were collected from 2-minute in-solution digestions of protein standards at 37° C. (pH 2.5), and cleavage preferences were determined using LC-MS/MS methods. For each amino acid, cleavage preferences were estimated by calculating the number observed terminal residues relative to the total number of residues, in percent.
Data were generated and collected as described for FIG. 1A.
Data are shown as relative % cleavage to the total, as defined above, using LC-MS/MS data from a set of protein standards. Samples were digested in solution for 5 minutes at 37° C. in this comparison, for all three enzyme preparations.
Data are provided as described for FIG. 1C.
Data was generated using HCD fragmentation on an LC-Orbitrap Velos instrument, and data searched against the sequence of APLF in Mass Spec Studio assuming no enzyme specificity, and results were cut off at a peptide false discovery rate (FDR) of 0.5%. Figure discloses SEQ ID NO: 87.

[4] = tested on: NOD DQ8 mice; experiment: transgenic NOD/HLA-DQ8 mouse model of gliadin sensitivity

Molecule | suppression of enzyme activity by proteolytic inhibitors [1] | weighted average peptide length for the low molecular weight fraction [2] | C-terminal (P1) cleavage specificity [3] | small intestinal CD3+ intraepithelial lymphocyte (IEL) counts ([4]; gliadin codigested with pepsin 100:1 and fluid enzyme 264:1 or nepenthesin II 100:1, pepsin alone is positive control) | tolerability ([4]; sensitized mice challenged three times per week for three weeks with 5 mg treated gliadin)
CC(C)CC(=O)N[C@H](C(=O)N[C@H](C(=O)N[C@@H](CC(C)C)[C@@H](O)CC(=O)N[C@@H](C)C(=O)N[C@@H](CC(C)C)[C@@H](O)CC(=O)O)C(C)C)C(C)C [Pepstatin, pepstatin] (Isovaleryl-VV[Sta]A[Sta]-OH) | could only partially suppress enzyme activity | – | – | – | –
B1 | – | 12.5 | dominant Pro-X cleavage specificity | – | –
B2 | – | – | absence of C-terminal proline (P) cleavage | – | –
B3 | – | – | absence of C-terminal proline (P) cleavage | significant reductions in IEL counts, to levels indistinguishable from the gliadin-free diet control | well tolerated
